The test concerns the target T1, Cynomolgus MUC1 his (Cat. # MU1-C52H5, Acro) (cynomolgus).
T1 construct: His-tagged, bought; also called Cyno MUC1-His
The test can be described thus: SPR (Biacore T200), antibody captured on Protein A. On the technique in general: Surface plasmon resonance follows binding to a sensor surface in real time, without labels.

One may read the Kd as a measure of binding affinity in units of concentration. Low values mean tighter binding, high ones weaker binding.

B1: M4-H1L1 (antibody, human IgG1, kappa)
heavy: not shown
light: DIQMTQSPSSLSASVGDRVTITCSASSSVFNMNWYQQKPGKSPKLWIYDISKLASGVPSRFSGSGSGTDFTLTISSLQPEDFATYYCQQRSFYPPTFGGGTKVEIKRTVAAPSVFIFPPSDEQLKSGTASVVCLLNNFYPREAKVQWKVDNALQSGNSQESVTEQDSKDSTYSLSSTLTLSKADYEKHKVYACEVTHQGLSSPVTKSFNRGEC
notes: humanized IgG1/kappa
B1 returned an equilibrium dissociation constant (Kd) of 18.9 nM.

B2: M4H1L1-ZalH4 (bispecific antibody, human IgG1, kappa)
heavy: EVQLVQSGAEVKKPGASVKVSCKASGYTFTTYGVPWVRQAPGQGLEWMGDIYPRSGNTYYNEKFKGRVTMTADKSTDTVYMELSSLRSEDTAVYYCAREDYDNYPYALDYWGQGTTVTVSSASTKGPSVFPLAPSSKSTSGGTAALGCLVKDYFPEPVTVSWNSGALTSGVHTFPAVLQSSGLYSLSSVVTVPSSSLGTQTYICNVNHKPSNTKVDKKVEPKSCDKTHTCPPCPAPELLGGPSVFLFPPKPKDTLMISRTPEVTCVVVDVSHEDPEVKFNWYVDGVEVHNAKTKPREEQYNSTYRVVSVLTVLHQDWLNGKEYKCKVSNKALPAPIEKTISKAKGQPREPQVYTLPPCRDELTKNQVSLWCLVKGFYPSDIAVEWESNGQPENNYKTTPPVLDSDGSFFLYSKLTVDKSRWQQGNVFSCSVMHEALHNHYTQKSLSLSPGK
light: B1 light
chain 1: not shown
chain 2: DIQLTQSPSSLSASVGDRVTITCRASQDISSALVWYQQKPGKAPKLLIYDASSLESGVPSRFSGSESGTDFTLTISSLQPEDFATYYCQQFNSYPLTFGGGTKVEIKGGGGSSGAPRFLTRPKASVVSVGKDATLSCQIVGNPFPQVSWEKDKQPVTAGVRFRLAQDGDLYRLKILDLQLSDSGQYVCRARNAHGEAFACLGLQVDAEA
On to B2, for which binding was put at a Kd of 17.8 nM.

Source of the values: patent EP4696711A1 (Jiangsu Hengrui Pharmaceuticals Co., Ltd., dated 2024).
